Experimental findings from article PMC2639713 are described below.

The series deals with T1, mini-vRNAP K176C/S885C (Bacteriophage N4 (coliphage), UniProt Q859P9 998-2103, K1173C;S1882C).
T1 sequence: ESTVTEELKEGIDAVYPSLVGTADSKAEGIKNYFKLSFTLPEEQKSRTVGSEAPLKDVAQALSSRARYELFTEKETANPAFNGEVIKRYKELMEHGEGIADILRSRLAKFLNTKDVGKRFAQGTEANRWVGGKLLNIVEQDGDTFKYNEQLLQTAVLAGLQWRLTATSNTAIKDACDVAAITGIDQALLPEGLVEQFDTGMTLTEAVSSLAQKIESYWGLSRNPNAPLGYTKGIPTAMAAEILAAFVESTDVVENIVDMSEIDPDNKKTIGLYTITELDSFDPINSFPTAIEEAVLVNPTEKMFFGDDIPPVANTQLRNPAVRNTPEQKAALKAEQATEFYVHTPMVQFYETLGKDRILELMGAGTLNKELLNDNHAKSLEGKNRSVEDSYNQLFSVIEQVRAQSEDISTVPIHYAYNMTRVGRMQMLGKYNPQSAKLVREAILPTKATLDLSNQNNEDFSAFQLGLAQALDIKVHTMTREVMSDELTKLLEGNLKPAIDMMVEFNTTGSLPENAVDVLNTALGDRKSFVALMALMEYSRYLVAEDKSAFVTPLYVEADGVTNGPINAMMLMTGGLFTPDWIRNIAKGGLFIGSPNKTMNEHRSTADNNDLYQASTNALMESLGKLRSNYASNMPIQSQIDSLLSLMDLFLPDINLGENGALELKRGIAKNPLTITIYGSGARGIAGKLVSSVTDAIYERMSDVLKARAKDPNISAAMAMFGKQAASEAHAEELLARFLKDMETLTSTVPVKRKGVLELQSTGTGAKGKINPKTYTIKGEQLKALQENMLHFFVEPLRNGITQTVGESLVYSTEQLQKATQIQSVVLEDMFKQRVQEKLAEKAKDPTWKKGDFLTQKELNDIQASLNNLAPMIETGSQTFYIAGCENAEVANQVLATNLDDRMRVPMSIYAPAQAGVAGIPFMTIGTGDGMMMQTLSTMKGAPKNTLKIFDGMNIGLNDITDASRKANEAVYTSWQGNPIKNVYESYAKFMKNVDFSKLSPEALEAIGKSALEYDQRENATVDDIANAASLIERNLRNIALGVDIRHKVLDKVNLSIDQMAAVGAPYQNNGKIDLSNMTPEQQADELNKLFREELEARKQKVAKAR
As to the kind of experiment: UV cross-linking.

B1: 13mer -11 5-IdU promoter hairpin (-17 to -5) (structured_DNA)
DNA: GAAGCGTAGCTTC
modifications: 5-iodo-dU at position 7 (-11), written as T
With B1, the binding result is “binds”.
